# Assay results as given in patent US20190336589A1, “IMMUNIZING PEPTIDE, METHOD FOR PRODUCING IMMUNIZING PEPTIDE, PHARMACEUTICAL COMPOSITION FOR IMMUNE DISEASE CONTAINING SAME, AND METHOD FOR TREATING IMMUNE DISEASE” (OSAKA UNIVERSITY, priority 2015, published 2019).
# Target: T1, complex of HEL peptide and MHC class II molecule (I-A^k) on 293 T cells (Mus musculus, UniProt P01910+P06343)
# T1 construct: α-chain of mouse MHC class II molecule (I-A^k); β-chain of mouse MHC class II molecule (I-A^k); expressed in transfected cells; host or cells: 293T cells (pME18S vectors, co-transfected with pMX-GFP)
# Test: Flow cytometry of serum IgG from HEL protein-immunized mice binding to 293 T cells expressing I-A^k pulsed with HEL peptides
# Source text: From mouse spleen cDNA, polynucleotides encoding the α-chain and the β-chain of a mouse MHC class II molecule (I-A^k) shown below were cloned into pME18S vectors, respectively. Thus, a mouse MHC class II molecule (I-A^k) α-chain expression vector (I-A^k a expression vector) and a mouse MHC class II molecule (I-A^k) β-chain expression vector (I-A^k β expression vector) were produced. As a GFP expression vector, pMX-GFP (obtained from the Division of Cellular Therapy in the Advanced Clinical Research Center of the Institute of Medical Science, the University of Tokyo) was used.
# 293T cells (obtained from RIKEN BioResource Center) were used as host cells to which the above-described expression vectors were to be introduced. First, the 293 T cells were seeded in a 24-well plate at a density of 2×10^5 cells/500 μl/well. Next, the expression vectors were introduced to the 293T cells using a PEI max solution obtained by dissolving a transfection 5 reagent (PEI max, Cosmo Bio Co., Ltd.) in purified water at a concentration of 2 mg/ml. Specifically, a mixture of 2 μl of the PEI max solution and 50 μl of a serum-free medium (OPTI-MEM®, GIBCO) was added to 50 μl of a serum-free medium containing 0.26 μg of the I-A^k c expression vector, 0.26 μg of the I-A^k f expression vector, and 0.26 μg of the GFP expression vector. Then, they were mixed together, whereby a transfection reagent was prepared. Thereafter, the transfection reagent was added to each well to introduce the expression vectors to the 293 T cells. After the introduction, the 293 T cells were cultured in a DMEM medium at 37° C. for 12 hours. Next, each of HEL peptides shown in Table 3 below was added to the wells at a concentration of 20 μmol/l. The 293 T cells were cultured for another 24 hours under the above-described culture conditions, whereby the 293 T cells were pulsed with the HEL peptide. The cultured 293 T cells were collected from the wells. Thereafter, the collected 293 T cells were used in antibody detection to be described below. The HEL peptides used in the present example and the following examples were obtained from SCRUM Inc., Eurofins Genomics K.K., or GenScript. In the HEL protein, a T-cell epitope presented by the MHC class II molecule I-A^k is a peptide consisting of the amino acid sequence of SEQ ID NO: 1 (DGSTDYGILQINSR). Thus, among the HEL peptides shown in Table 3 below, HEL peptide 41-70 corresponds to the immunizing peptide.
# 100 μg of a HEL protein (Sigma) was mixed with a complete Freund's adjuvant (CFA, Sigma), and the resultant mixture was administered subcutaneously to mice (B10.A strain). Two weeks after the administration, whole blood was collected from each mouse, and serum was collected from the whole blood.
# The serum collected from each of the HEL protein-immunized mice was diluted 100-fold with a HANKS' BALANCED SALT SOLUTION (HBSS, Sigma) to obtain a diluted serum. Next, 10 μl of the diluted serum was added to the 293 T cells obtained in the above item (1) to cause a reaction. The 293 T cells after the reaction were washed, and then stained with an APC-labeled anti-mouse IgG (H+L) antibody (code-number: 715-136-150, Jackson ImmunoResearch). Thereafter, the stained 293 T cells were analyzed by flow cytometry (FACSCalibur™, Becton Dickinson) (peptide non-added groups). As peptide added groups, the HEL peptides shown in Table 3 above were added to the diluted serums, respectively, at a concentration of 40 μmol/l. Then, the diluted serums containing the respective HEL peptides were added to the 293 T cells pulsed with the corresponding HEL peptides to cause a reaction. Except for the above, the peptide added groups were analyzed by the flow cytometry analysis in the same manner.
# Peptide non-added groups were analyzed by flow cytometry in the same manner as in the above item (3), except that, instead of the HEL peptides shown in Table 3 above, the HEL peptide 41-70, the HEL peptide 48-61, and HEL peptides shown in Table 4 below were used. […]
# [1] = peptide added groups: same HEL peptide added to diluted serum at 40 μmol/l, serum of HEL protein-immunized mice
# [2] = peptide non-added groups, serum of HEL protein-immunized mice diluted 100-fold, I-A^k 293 T cells pulsed with 20 μmol/l peptide
# T1 sequence (P01910 24-256): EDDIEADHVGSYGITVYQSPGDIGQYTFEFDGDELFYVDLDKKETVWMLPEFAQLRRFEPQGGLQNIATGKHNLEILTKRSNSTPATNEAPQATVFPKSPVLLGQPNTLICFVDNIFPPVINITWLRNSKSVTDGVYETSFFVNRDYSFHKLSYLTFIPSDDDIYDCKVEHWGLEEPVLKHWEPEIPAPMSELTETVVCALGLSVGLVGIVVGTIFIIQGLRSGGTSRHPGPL
# T1 sequence (P06343 28-263): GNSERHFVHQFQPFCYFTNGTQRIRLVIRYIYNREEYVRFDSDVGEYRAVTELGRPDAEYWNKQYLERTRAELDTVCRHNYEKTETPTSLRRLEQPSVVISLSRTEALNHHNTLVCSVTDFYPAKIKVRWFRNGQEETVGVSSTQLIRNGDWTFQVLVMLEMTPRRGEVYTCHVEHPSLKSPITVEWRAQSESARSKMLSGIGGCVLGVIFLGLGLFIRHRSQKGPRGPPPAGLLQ
serum IgG binding to 293 T cells pulsed with the HEL peptide [1],serum IgG binding to 293 T cells pulsed with the HEL peptide [2],Sequence
not observed,not observed,"DGSTDYGILQINSR (Gallus gallus domesticus) [HEL peptide 48-61, reference compound]"
observed,observed,QATNRNTDGSTDYGILQINSRWWCNDGRTP (Gallus gallus domesticus) [HEL peptide 41-70]
